Where two headings read alike, the source gives them in different places.
Legend:
GFAT activity [1] = target: T1, GFAT activity (Homo sapiens, UniProt Q06210, INS317HHHHHH); assay: Morgan-Elson assay of GFAT1-His6 enzyme activity; assay type: biochemical; settings: 30 minutes at 37° C.; D-glucosamine standard curve
T1 construct: made in house; host or cells: Sf9 insect cells (recombinant baculovirus)
Protocol: In this case the enzyme activity is monitored by a colorimetric test the principle of which is the following: the D-glucosamine-6P released by the enzyme is N-acetylated by acetic anhydride in alkaline medium (Ghosh et al., Method. Enzymol. (1962) 5:414), then the solution is treated with Ehrlich's reagent (para-dimethyl-amino-benzaldehyde, PDAB) in concentrated acid medium; the pink compound formed absorbs at 585 nm.
The enzymatic reaction takes place over 30 minutes at 37° C. in the presence of: • 0.2 ml of 100 mM fructose-6P • 0.25 ml of 60 mM L-Glutamine • 0.25 ml of 150 mM KPO4 buffer, pH 7 • 0.1 ml of 25 mM EDTA (ethylene diamine tetra-acetate), pH 7 • up to 200 μl of sample (to be completed with H2O if necessary)
The reaction is stopped by immersion for 4 minutes in a water bath at 100° C. then centrifuged. […]
The activity of the GFAT was determined by comparison with a standard curve established using D-glucosamine as standard in a concentration range of 0 to 200 nmoles. The specific activity of the GFAT1-His6 obtained was thus measured at 1.7 U/mg. […]

GFAT activity [2] = target: T1, GFAT activity; assay: APAD assay (spectrophotometric assay coupled with glutamate dehydrogenase); assay type: biochemical
Protocol: The kinetic parameters of GFAT1-His6 have been characterized vis-à-vis glutamine (Km^Gln=0.2 mM) and fructose-6P (F6P) (Km^F6P=0.006 mM) by a spectrophotometric assay coupled with glutamate dehydrogenase according to the APAD test. This is in accordance with the values cited in the prior art (Km^Gln=0.26 mM and Km^F6P=0.007 mM for Broschat et al., J. Biol. Chem. (2002) 277:14764).
This is an ultraviolet spectrophotometric assay of the GFAT activity. It is based on the continuous determination of the quantity of L-glutamate formed using GFAT and an analogue of NAD (nicotinamide adenine dinucleotide), APAD (3-acetylpyridine adenine dinucleotide), according to the following reaction (catalyzed by glutamate dehydrogenase (GDH)):
The measurement is carried out at 365 nm, at 37° C. Under these conditions an absorbance unit corresponds to 0.11 μmole of APADH formed.
The test comprises: • 100 μl 3 mM APAD (2 mg/ml) • 25 μl 2M KCl • 100 μl of 1 M KPO4 buffer, pH 7.2 • 100 μl of 100 mM Fructose-6P (30.41 mg/ml) • 100 μl of 60 mM purified L-Glutamine (8.77 mg/ml) • H2O qsf 1 ml (taking into account the volumes to be added hereafter) • 50 μl GDH • sample to be assayed: 0.5 μg

GFAT activity [3] = settings: value obtained by Broschat et al., J. Biol. Chem. (2002) 277:14764; cited from earlier work

T1 sequence (Q06210 with tags, fused parts or gaps isoform Q06210-2 INS299HHHHHH): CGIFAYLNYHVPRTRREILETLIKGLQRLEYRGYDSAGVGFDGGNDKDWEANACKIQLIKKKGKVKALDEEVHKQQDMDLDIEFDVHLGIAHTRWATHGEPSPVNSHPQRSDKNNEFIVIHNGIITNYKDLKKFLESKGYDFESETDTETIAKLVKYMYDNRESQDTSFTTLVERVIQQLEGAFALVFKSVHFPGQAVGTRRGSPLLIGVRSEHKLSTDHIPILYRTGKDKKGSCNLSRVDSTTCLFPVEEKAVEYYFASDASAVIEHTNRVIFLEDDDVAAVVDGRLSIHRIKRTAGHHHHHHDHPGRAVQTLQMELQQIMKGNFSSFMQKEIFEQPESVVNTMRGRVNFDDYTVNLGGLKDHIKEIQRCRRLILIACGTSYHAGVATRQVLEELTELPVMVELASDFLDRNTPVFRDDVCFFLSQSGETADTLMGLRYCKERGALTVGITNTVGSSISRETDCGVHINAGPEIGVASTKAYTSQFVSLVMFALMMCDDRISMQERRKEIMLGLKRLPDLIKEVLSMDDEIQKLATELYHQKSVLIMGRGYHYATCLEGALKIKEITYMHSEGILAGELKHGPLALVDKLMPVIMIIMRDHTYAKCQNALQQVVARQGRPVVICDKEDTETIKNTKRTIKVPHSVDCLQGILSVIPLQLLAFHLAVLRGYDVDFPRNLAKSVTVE

| Molecule | specific activity (GFAT activity [1]) [U/mg] | Km (GFAT activity [2]; vis-à-vis fructose-6P, read-out: Km F6P) [µM] | Km (GFAT activity [2]; vis-à-vis glutamine, read-out: Km Gln) [µM] | specific activity (GFAT activity [3]) [U/mg] |
| --- | --- | --- | --- | --- |
| GFAT1-His6: human GFAT1 (SEQ ID NO: 2) in which a hexa-histidine purification tag is inserted between amino acids 299 and 300 (protein, UniProt Q06210 2-699, looked up, internal His6 tag) Glutamine--fructose-6-phosphat …: CGIFAYLNYHVPRTRREILETLIKGLQRLEYRGYDSAGVGFDGGNDKDWEANACKIQLIKKKGKVKALDEEVHKQQDMDLDIEFDVHLGIAHTRWATHGEPSPVNSHPQRSDKNNEFIVIHNGIITNYKDLKKFLESKGYDFESETDTETIAKLVKYMYDNRESQDTSFTTLVERVIQQLEGAFALVFKSVHFPGQAVGTRRGSPLLIGVRSEHKLSTDHIPILYRTARTQIGSKFTRWGSQGERGKDKKGSCNLSRVDSTTCLFPVEEKAVEYYFASDASAVIEHTNRVIFLEDDDVAAVVDGRLSIHRIKRTAGDHPGRAVQTLQMELQQIMKGNFSSFMQKEIFEQPESVVNTMRGRVNFDDYTVNLGGLKDHIKEIQRCRRLILIACGTSYHAGVATRQVLEELTELPVMVELASDFLDRNTPVFRDDVCFFLSQSGETADTLMGLRYCKERGALTVGITNTVGSSISRETDCGVHINAGPEIGVASTKAYTSQFVSLVMFALMMCDDRISMQERRKEIMLGLKRLPDLIKEVLSMDDEIQKLATELYHQKSVLIMGRGYHYATCLEGALKIKEITYMHSEGILAGELKHGPLALVDKLMPVIMIIMRDHTYAKCQNALQQVVARQGRPVVICDKEDTETIKNTKRTIKVPHSVDCLQGILSVIPLQLLAFHLAVLRGYDVDFPRNLAKSVTVE | 1.7 | 6 | 200 |  |
| recombinant human GFAT1: recombinant human GFAT1 purified by Broschat et al., J. Biol. Chem. (2002) 277:14764 (protein, UniProt Q06210 2-699, looked up) Glutamine--fructose-6-phosphat …: CGIFAYLNYHVPRTRREILETLIKGLQRLEYRGYDSAGVGFDGGNDKDWEANACKIQLIKKKGKVKALDEEVHKQQDMDLDIEFDVHLGIAHTRWATHGEPSPVNSHPQRSDKNNEFIVIHNGIITNYKDLKKFLESKGYDFESETDTETIAKLVKYMYDNRESQDTSFTTLVERVIQQLEGAFALVFKSVHFPGQAVGTRRGSPLLIGVRSEHKLSTDHIPILYRTARTQIGSKFTRWGSQGERGKDKKGSCNLSRVDSTTCLFPVEEKAVEYYFASDASAVIEHTNRVIFLEDDDVAAVVDGRLSIHRIKRTAGDHPGRAVQTLQMELQQIMKGNFSSFMQKEIFEQPESVVNTMRGRVNFDDYTVNLGGLKDHIKEIQRCRRLILIACGTSYHAGVATRQVLEELTELPVMVELASDFLDRNTPVFRDDVCFFLSQSGETADTLMGLRYCKERGALTVGITNTVGSSISRETDCGVHINAGPEIGVASTKAYTSQFVSLVMFALMMCDDRISMQERRKEIMLGLKRLPDLIKEVLSMDDEIQKLATELYHQKSVLIMGRGYHYATCLEGALKIKEITYMHSEGILAGELKHGPLALVDKLMPVIMIIMRDHTYAKCQNALQQVVARQGRPVVICDKEDTETIKNTKRTIKVPHSVDCLQGILSVIPLQLLAFHLAVLRGYDVDFPRNLAKSVTVE |  |  |  | 0.4 |
